Article PMC10294536

Experiments:
Settings in all cases: reference: EGFP-HURP wild type; sites S725
GP73 = GP73 (UniProt Q8NBJ4); assay: co-IP of EGFP-HURP with GP73
GM130 = GM130 (UniProt Q08379); assay: co-IP of EGFP-HURP with GM130
GRASP65 = GRASP65 (UniProt Q9BQQ3); assay: co-IP of EGFP-HURP with GRASP65

binding against the reference (GP73): lost
binding against the reference (GM130): lost
binding against the reference (GRASP65): lost
Substance: HURP (from UniProt Q15398) EGFP-HURP 725A
